Data taken from article PMC6491433 (2019).

T1: H-NS (Escherichia coli, UniProt P0ACF8)
T1 chain: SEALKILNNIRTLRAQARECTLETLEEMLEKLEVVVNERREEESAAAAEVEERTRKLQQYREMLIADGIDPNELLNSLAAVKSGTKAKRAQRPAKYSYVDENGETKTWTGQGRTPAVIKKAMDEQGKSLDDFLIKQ

B1: Cnu (protein)
chain: MTVQDYLLKFRKISSLESLEKLYDHLNYTLTDDQELINMYRAADHRRAELVSGGRLFDLGQVPKSVWHYVQ
B2: H-NS (residues 1-59 of the N-terminal domain), the tyrosine variant (domain or fragment)
chain: MSEALKILNNIRTLRAQARESTLETLEEMLEKLEVVVNERREEESAAAAEVEERTRKLY

How the values were obtained:
H-NS = target: T1, H-NS; test: fluorescence anisotropy
Cnu (E. coli) [1] = test: other fluorescence titration; ~2 uM Cnu with ~30 nM to ~140 uM H-NS; W67 emission on excitation at 295 nm, intensity-averaged wavenumber; Hill fit; apparent; 500 mM ionic strength, sodium phosphate pH 8.0; temperatures from 5 to 37 °C
Cnu (E. coli) [2] = test: other fluorescence titration; ~2 uM Cnu with ~30 nM to ~140 uM H-NS; W67 emission on excitation at 295 nm, intensity-averaged wavenumber; Hill fit; apparent; 170 mM ionic strength, sodium phosphate pH 8.0; temperatures from 5 to 37 °C
[3] = target: H-NSW, variant of H-NS with a tryptophan at its C-terminus (E. coli) (UniProt P0ACF8); test: fluorescence polarisation; steady-state tryptophan anisotropy; 2 uM H-NSW with ~30 nM to ~140 uM H-NS (tyrosine variant); excitation 295 nm; 170 mM ionic strength, 5 °C and 37 °C; apparent; fit to monomer-dimer (1:1) equilibrium

| Binder | Kd (H-NS) | K1/2 (Cnu (E. coli) [1]) | fold increase in affinity against 500 mM IS (Cnu (E. coli) [2]) | Kd [3] | minimum oligomerization concentration [3] |
| --- | --- | --- | --- | --- | --- |
| B1 | ~125 µM | – | – | – | – |
| B2 | – | 100 µM | 4 fold | 100 to 150 µM | 10 µM |
